The record followed here is paper PMC12525004, “Bacillus subtilis DinG 3′⟶5′ Exo(ribo)nuclease: A Helpmate to Mitigate Replication Stress” (International Journal of Molecular Sciences, 2025).

Holding throughout (conditions): protein: recombinant; tags: none stated (pET3a, untagged); label: 5'-32P; single strand
For series [1], the target named is T1, DinG D10A E12A (Bacillus subtilis, UniProt P54394 1-931, D10A;E12A).
T1 sequence: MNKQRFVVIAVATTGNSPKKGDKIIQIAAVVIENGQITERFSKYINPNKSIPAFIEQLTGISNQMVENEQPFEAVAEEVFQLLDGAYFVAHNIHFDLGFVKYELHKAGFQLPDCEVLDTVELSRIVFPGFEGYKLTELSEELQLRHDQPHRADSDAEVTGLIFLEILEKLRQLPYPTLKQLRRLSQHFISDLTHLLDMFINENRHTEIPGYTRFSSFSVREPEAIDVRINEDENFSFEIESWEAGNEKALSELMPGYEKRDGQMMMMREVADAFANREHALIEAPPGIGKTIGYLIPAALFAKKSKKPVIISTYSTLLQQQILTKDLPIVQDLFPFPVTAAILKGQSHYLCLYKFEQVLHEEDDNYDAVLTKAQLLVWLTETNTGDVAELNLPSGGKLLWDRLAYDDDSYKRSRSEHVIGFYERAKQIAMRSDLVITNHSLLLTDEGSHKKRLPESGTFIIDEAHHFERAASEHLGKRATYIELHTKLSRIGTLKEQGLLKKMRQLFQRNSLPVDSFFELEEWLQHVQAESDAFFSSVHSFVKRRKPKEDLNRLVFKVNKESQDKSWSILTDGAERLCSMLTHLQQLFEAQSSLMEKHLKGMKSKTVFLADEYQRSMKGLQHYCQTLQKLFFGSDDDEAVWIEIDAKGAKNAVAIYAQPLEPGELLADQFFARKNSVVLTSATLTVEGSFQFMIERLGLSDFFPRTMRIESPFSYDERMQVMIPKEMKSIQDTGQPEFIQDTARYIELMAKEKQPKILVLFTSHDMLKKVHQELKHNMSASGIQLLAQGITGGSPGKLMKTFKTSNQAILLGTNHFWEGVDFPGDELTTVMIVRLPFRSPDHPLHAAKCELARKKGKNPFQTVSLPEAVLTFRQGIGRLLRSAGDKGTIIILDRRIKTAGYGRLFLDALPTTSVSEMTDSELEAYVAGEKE
The series is described as follows: EMSA; 2 mM EDTA, no metal; text names lssDNA38, Methods and Fig S4 legend give lssDNA45; EMSA, buffer D (composition not in material; 3 mM MgCl2, or 2 mM EDTA instead), 0.5 nM DNA, 37 °C, 10 min (text: 5 min), 15% native PAGE in TBE 1X; pH and salt. In general terms: In EMSA bound probe runs differently from free probe, usually more slowly.

Series [2] has as its target T1, DinG D10A E12A. As to the kind of experiment: EMSA; 3 mM Mg2+; C1, C2 and well complexes; EMSA, buffer D (composition not in material; 3 mM MgCl2, or 2 mM EDTA instead), 0.5 nM DNA, 37 °C, 10 min (text: 5 min), 15% native PAGE in TBE 1X; pH and salt.
The target of series [3] is T2, DinG K290A (Bacillus subtilis, UniProt P54394 1-931, K290A).
T2 sequence: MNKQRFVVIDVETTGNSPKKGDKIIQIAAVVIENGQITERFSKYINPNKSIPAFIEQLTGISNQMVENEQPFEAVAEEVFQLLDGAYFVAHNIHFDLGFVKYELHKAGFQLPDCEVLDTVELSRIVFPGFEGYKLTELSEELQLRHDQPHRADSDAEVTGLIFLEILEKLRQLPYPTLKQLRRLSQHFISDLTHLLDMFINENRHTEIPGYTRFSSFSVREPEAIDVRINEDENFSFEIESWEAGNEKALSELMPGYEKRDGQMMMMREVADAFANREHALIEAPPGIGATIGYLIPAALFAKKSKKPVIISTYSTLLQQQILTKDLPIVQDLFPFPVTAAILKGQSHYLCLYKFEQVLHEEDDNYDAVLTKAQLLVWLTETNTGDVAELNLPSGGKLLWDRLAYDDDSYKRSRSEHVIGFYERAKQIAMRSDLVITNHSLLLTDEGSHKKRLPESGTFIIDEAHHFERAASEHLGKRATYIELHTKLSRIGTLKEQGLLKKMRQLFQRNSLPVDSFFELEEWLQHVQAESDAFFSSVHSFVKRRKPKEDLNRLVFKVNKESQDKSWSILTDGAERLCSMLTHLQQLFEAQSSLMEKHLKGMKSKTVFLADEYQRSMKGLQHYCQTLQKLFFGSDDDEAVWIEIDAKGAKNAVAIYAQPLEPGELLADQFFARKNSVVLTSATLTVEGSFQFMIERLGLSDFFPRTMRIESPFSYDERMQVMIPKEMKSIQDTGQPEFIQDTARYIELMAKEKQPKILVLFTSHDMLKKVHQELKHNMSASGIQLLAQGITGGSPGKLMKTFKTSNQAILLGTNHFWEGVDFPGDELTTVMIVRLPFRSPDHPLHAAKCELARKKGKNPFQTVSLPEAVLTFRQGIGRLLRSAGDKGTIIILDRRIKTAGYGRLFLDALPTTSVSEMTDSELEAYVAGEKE
As to the kind of experiment: EMSA; 2 mM EDTA, no metal; Kapp; text names lssDNA38, Methods and Fig S4 legend give lssDNA45; EMSA, buffer D (composition not in material; 3 mM MgCl2, or 2 mM EDTA instead), 0.5 nM DNA, 37 °C, 10 min (text: 5 min), 15% native PAGE in TBE 1X; pH and salt.

As to GTACGTATTCAAGATACCTCGTACTCTGTACTGACTCGGATCCTA (ssDNA, biotin-T at position 44 (second from 3' end)) [3'-Biotin gamma32P-lssDNA45], the binding signal in series [1] is ~2 fold lower affinity than its Mg2+-bound state; in series [2], ~37 fold lower affinity than wt DinG. Moreover, the “apparent K (half saturation)” value in series [3] was around 1.1 nM.
